Results taken from US20250018014A1, “METHOD FOR TREATING AND/OR PREVENTING REGNASE-1-RELATED DISEASE” (OSAKA UNIVERSITY, priority 2018, published 2025).
No end group written: not given here.

T1: FL_Reg1 (human full-length Regnase-1) (Homo sapiens, UniProt Q5D1E8)
T1 construct: made in house; host or cells: Expi293 cells
T1 sequence (Q5D1E8 1-599): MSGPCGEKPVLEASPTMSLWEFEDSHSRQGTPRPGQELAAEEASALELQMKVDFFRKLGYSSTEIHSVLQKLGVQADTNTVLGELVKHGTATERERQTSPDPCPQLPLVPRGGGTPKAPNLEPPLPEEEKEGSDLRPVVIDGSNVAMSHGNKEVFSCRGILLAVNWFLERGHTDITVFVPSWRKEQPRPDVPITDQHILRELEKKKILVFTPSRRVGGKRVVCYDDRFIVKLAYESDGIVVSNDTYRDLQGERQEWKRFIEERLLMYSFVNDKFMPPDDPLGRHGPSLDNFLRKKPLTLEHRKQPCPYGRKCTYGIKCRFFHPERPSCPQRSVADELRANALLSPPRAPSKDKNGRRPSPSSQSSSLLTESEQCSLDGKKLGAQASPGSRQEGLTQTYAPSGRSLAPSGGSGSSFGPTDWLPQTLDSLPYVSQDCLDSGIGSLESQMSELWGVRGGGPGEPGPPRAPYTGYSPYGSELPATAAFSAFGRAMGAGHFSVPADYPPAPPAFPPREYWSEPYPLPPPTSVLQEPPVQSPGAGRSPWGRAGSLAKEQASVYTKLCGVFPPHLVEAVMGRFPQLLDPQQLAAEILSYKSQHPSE

T2: Regnase-1 phosphorylation by TBK1 (Homo sapiens, UniProt Q5D1E8)
T2 construct: GST (N, cleaved yes); made in house; host or cells: Expi293 cells
T2 sequence (Q5D1E8 1-599): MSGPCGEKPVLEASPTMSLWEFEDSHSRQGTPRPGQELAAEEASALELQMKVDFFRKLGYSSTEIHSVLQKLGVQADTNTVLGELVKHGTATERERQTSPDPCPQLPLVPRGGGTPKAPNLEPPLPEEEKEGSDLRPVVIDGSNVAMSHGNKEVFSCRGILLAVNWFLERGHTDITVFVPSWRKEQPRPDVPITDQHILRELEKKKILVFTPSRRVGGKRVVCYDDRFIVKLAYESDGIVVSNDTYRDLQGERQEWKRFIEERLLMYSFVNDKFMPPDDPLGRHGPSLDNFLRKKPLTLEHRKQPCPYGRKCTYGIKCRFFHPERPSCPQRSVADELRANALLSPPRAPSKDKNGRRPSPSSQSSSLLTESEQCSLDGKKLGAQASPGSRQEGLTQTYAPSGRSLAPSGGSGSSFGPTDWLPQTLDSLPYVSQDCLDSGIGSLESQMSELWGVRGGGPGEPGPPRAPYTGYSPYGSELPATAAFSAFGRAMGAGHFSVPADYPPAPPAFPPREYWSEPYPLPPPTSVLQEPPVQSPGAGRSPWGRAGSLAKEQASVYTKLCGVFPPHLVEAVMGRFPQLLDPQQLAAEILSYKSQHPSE

T3: Peptide 2 (AFPPREYWSEPYPLPPPTC-NH2), biotin-conjugated (human, also: biotin-conjugated, position not given here)
T3 peptide: AFPPREYWSEPYPLPPPTC-NH2


Experiments:
[1] = biological target: T4, Peptide 2 ([…]-NH2), partial peptide of human Regnase-1 (Homo sapiens, UniProt Q5D1E8); assay: Binding of anti-non-phosphorylated Regnase-1 peptide antibodies to bead-bound Peptide 2 (iQue screener); conditions: streptavidin-immobilized beads; histograms FIG. 32
T4 construct: made in house; host or cells: chemical synthesis
Procedure: (§1) • Biotin-Conjugated FL_Reg1, Biotin-Conjugated Peptide • […], biotin-conjugated peptide • AFPPREYWSEPYPLPPPTC-NH2, and biotinylated BSA (Sigma, A8549) were each bound to streptavidin-immobilized beads.
(§2) These beads were mixed with each anti-Regnase-1 antibody, and they were allowed to react. Thereafter, Anti-Rabbit IgG1 Alexa488 (molecular probes, A21244) was mixed and reacted, and analysis was performed with iQue screener PLUS (intellicyt). Data was analyzed with FlowJo ver10.

[2] = biological target: T1, FL_Reg1 (human full-length Regnase-1); assay: Binding of anti-non-phosphorylated Regnase-1 peptide antibodies to bead-bound full length human Regnase-1 (iQue screener); conditions: streptavidin-immobilized beads; histograms FIG. 32
Procedure: as §1, §2

[3] = biological target: T2, Regnase-1 phosphorylation by TBK1; assay: Inhibitory activity of anti-Regnase-1 antibodies against Regnase-1 phosphorylation by TBK1 (Phos-tag gel, western blotting); format: biochemical; conditions: antibody at final concentrations of 16.7 μg/mL and 5.0 μg/mL; relative to Control group
Procedure: To a solution (ATP buffer) containing Kinase Assay Buffer III (manufactured by SignalChem) supplemented with 2 mM DTT, 100 μM sodium vanadate, 2 mM manganese chloride, and 15 μM ATP, dephosphorylated Regnase-1 was mixed at 150 nM. Four microliters of this solution and 4 μL of HEPES Buffered Saline containing 50 μg/mL or 15 μg/mL of anti-Regnase-1 antibody were mixed, and this was allowed to react for one hour. This reaction solution was mixed with 4 μL of ATP buffer containing 150 nM of each kinase (IKKβ or TBK1), and further reacted for one hour. After the reaction, 4 μL of 4× Laemmli Sample buffer (manufactured by Bio-Rad) was added and this mixture was incubated at 95° C. for five minutes for protein denaturation treatment. This sample was ice-cooled for three minutes, and 10 μL of it was added to SuperSep Phos-tag 7.5% 17 wells (manufactured by Wako) placed in EasySeparator (manufactured by Wako). As a marker, 10 μL of WIDE-VIEW Prestained Protein Size Marker III (manufactured by Wako) was added, and the EasySeparator was filled with Tris-Glycine SDS buffer (manufactured by Takara). After electrophoresis at 175 V for 70 minutes, this was washed with 10% Tris-Glycine SDS buffer containing 5 mM EDTA and 20% MeOH for 10 minutes. After two further washings, washing was performed with 10% Tris-Glycine SDS buffer containing 20% MeOH for ten minutes. The washed gel was placed in the Trans-Blot Turbo Transfer Pack (manufactured by Bio-Rad), and transferred using the BioRad Transfer Turbo (manufactured by Bio-Rad). […] Chemiluminescence was detected using ImageQuant LAS4000 mini (manufactured by GE Healthcare).
A band for phosphorylated Regnase-1 was detected due to treatment with each kinase (FIG. 33A). Band densities were measured with Image Quant-TL (manufactured by GE Healthcare). The relative value for the band density of the sample to which each compound was added was calculated, considering the band density of the kinase-added sample of the Control group, to which no compound was added, as 1. […]

[4] = biological target: T3, Peptide 2 (AFPPREYWSEPYPLPPPTC-NH2), …; assay: flow cytometry of streptavidin beads carrying the biotinylated antigen, anti-rabbit IgG Alexa488
Procedure: as §2

Row | Molecule | binding to Peptide 2 compared with biotinylated BSA [1] | binding to FL_Reg1 compared with biotinylated BSA [2] | density of the phosphorylated Regnase-1 band in TBK1 treatment [3] | binding result [4]
1 | REB0007: anti-Regnase-1 antibody; heavy chain SEQ ID NO: 24, light chain SEQ ID NO: 25 (antibody) heavy: QEQLEESGGDLVKPEGSLTLTCTASGFSFNSRYWICWVRQAPGKGLEWIGCIVSGDSNTYYASWAKGRFTISKTSSTTVTLQMTSLTAADTATYFCARWYTSSRPGLWGPGTLVTVSSGQPKAPSVFPLAPCCGDTPSSTVTLGCLVKGYLPEPVTVTWNSGTLTNGVRTFPSVRQSSGLYSLSSVVSVTSSSQPVTCNVAHPATNTKVDKTVAPSTCSKPTCPPPELLGGPSVFIFPPKPKDTLMISRTPEVTCVVVDVSQDDPEVQFTWYINNEQVRTARPPLREQQFNSTIRVVSTLPITHQDWLRGKEFKCKVHNKALPAPIEKTISKARGQPLEPKVYTMGPPREELSSRSVSLTCMINGFYPSDISVEWEKNGKAEDNYKTTPAVLDSDGSYFLYNKLSVPTSEWQRGDVFTCSVMHEALHNHYTQKSISRSPGK light: DVVMTQTPASVSEPVGGTVTIKCQASQSISSYLSWYQQKPGQPPKLLIYSATNLASGVSSRFKGSRFGTEFTLTISDLECDDAATYYCQCSYYVSGFAFGGGTEVVVKGDPVAPTVLIFPPAADQVATGTVTIVCVANKYFPDVTVTWEVDGTTQTTGIENSKTPQNSADCTYNLSSTLTLTSTQYNSHKEYTCKVTQGTTSVVQSFNRGD | bound more strongly | bound more strongly | decreased | –
2 | REB0007 (antibody, V domains shown, Cloned from immunized rabbits, expressed in HEK293 cells, purified by Protein A; also called anti-Regnase-1 antibody; anti-non-phosphorylated Regnase-1 peptide antibody) VH: QEQLEESGGDLVKPEGSLTLTCTASGFSFNSRYWICWVRQAPGKGLEWIGCIVSGDSNTYYASWAKGRFTISKTSSTTVTLQMTSLTAADTATYFCARWYTSSRPGLWGPGTLVTVSS VL: DVVMTQTPASVSEPVGGTVTIKCQASQSISSYLSWYQQKPGQPPKLLIYSATNLASGVSSRFKGSRFGTEFTLTISDLECDDAATYYCQCSYYVSGFAFGGGTEVVVKG | – | – | – | binds
3 | REB0022 (antibody, V domains shown, Cloned from immunized rabbits, expressed in HEK293 cells, purified by Protein A; also called anti-Regnase-1 antibody; anti-non-phosphorylated Regnase-1 peptide antibody) VH: QEQLEESGGDLVKPEGSLTLTCTASGGSFSSRYWMCWVRQAPGKGLEWIACIVIGDRNNYYASWAKGRFTISKTSSTTVTLQMTSLTAADTATYFCARWHSSTAPSLWGPGTLVTVSS VL: DVVMTQTPASVSEPVGGTVTINCQASQSISSYLSWYQQKPGQPPKLLIYKASTLASGVSSRFKGSGSGTEFTLTISDLECADAATYYCQCSYYVSGFVFGGGTEVVVKG | – | – | – | binds
4 | REB0014: anti-Regnase-1 antibody; heavy chain SEQ ID NO: 26, light chain SEQ ID NO: 27 (antibody) heavy: QSLEESGGGLVKPGGTLTLTCKASGIDFSSYYYMCWVRQAPGKGLEWIACIYSGDGSSYYVSWANGRFTISKTSSATVTLQMTSLTAADTATYFCARDLGNLWGPGTLVTVSSGQPKAPSVFPLAPCCGDTPSSTVTLGCLVKGYLPEPVTVTWNSGTLTNGVRTFPSVRQSSGLYSLSSVVSVTSSSQPVTCNVAHPATNTKVDKTVAPSTCSKPTCPPPELLGGPSVFIFPPKPKDTLMISRTPEVTCVVVDVSQDDPEVQFTWYINNEQVRTARPPLREQQFNSTIRVVSTLPITHQDWLRGKEFKCKVHNKALPAPIEKTISKARGQPLEPKVYTMGPPREELSSRSVSLTCMINGFYPSDISVEWEKNGKAEDNYKTTPAVLDSDGSYFLYNKLSVPTSEWQRGDVFTCSVMHEALHNHYTQKSISRSPGK light: QVLTQTPASVSAAVGGTVTINCQASQSVYKNSGLSWFQQKPGQSPKRLIYSASTLDSGVPSRFKGSGSGTQFTLTISDVQCDDAATYYCLGIYVCSSVDCGAFGGGTEVVVKGDPVAPTVLIFPPAADQVATGTVTIVCVANKYFPDVTVTWEVDGTTQTTGIENSKTPQNSADCTYNLSSTLTLTSTQYNSHKEYTCKVTQGTTSVVQSFNRGDC | bound more strongly | bound more strongly | decreased | –
5 | REB0014 (antibody, V domains shown, Cloned from immunized rabbits, expressed in HEK293 cells, purified by Protein A; also called anti-Regnase-1 antibody; anti-non-phosphorylated Regnase-1 peptide antibody) VH: QSLEESGGGLVKPGGTLTLTCKASGIDFSSYYYMCWVRQAPGKGLEWIACIYSGDGSSYYVSWANGRFTISKTSSATVTLQMTSLTAADTATYFCARDLGNLWGPGTLVTVSS VL: QVLTQTPASVSAAVGGTVTINCQASQSVYKNSGLSWFQQKPGQSPKRLIYSASTLDSGVPSRFKGSGSGTQFTLTISDVQCDDAATYYCLGIYVCSSVDCGAFGGGTEVVVKG | – | – | – | binds
6 | REB0022: anti-Regnase-1 antibody; heavy chain SEQ ID NO: 28, light chain SEQ ID NO: 29 (antibody) heavy: QEQLEESGGDLVKPEGSLTLTCTASGGSFSSRYWMCWVRQAPGKGLEWIACIVIGDRNNYYASWAKGRFTISKTSSTTVTLQMTSLTAADTATYFCARWHSSTAPSLWGPGTLVTVSSGQPKAPSVFPLAPCCGDTPSSTVTLGCLVKGYLPEPVTVTWNSGTLTNGVRTFPSVRQSSGLYSLSSVVSVTSSSQPVTCNVAHPATNTKVDKTVAPSTCSKPTCPPPELLGGPSVFIFPPKPKDTLMISRTPEVTCVVVDVSQDDPEVQFTWYINNEQVRTARPPLREQQFNSTIRVVSTLPITHQDWLRGKEFKCKVHNKALPAPIEKTISKARGQPLEPKVYTMGPPREELSSRSVSLTCMINGFYPSDISVEWEKNGKAEDNYKTTPAVLDSDGSYFLYNKLSVPTSEWQRGDVFTCSVMHEALHNHYTQKSISRSPGK light: DVVMTQTPASVSEPVGGTVTINCQASQSISSYLSWYQQKPGQPPKLLIYKASTLASGVSSRFKGSGSGTEFTLTISDLECADAATYYCQCSYYVSGFVFGGGTEVVVKGDPVAPTVLIFPPAADQVATGTVTIVCVANKYFPDVTVTWEVDGTTQTTGIENSKTPQNSADCTYNLSSTLTLTSTQYNSHKEYTCKVTQGTTSVVQSFNRGDC | bound more strongly | bound more strongly | decreased | –
